Measured values as given in patent publication US20240092867A1 (UNIVERSITY OF CHICAGO, published 2024).

T1: vascular endothelial growth factor (VEGF)-A121 (human, UniProt P15692-9 27-147)
T1 construct: mature; Purchased in mature form, not glycosylated
T1 sequence (looked up): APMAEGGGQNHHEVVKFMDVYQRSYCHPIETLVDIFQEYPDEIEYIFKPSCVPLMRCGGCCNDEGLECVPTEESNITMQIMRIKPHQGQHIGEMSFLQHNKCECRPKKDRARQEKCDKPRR

T2: placental growth factor (PlGF)-1 (human, UniProt P49763-2 19-149)
T2 construct: mature; Purchased in mature form
T2 sequence (looked up): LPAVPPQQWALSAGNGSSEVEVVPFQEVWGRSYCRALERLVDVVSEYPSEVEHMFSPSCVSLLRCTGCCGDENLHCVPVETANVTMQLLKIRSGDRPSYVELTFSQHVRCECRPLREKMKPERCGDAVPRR

T3: placental growth factor (PlGF)-2 (human, UniProt P49763-3 19-170)
T3 construct: mature; Purchased in mature form
T3 sequence (looked up): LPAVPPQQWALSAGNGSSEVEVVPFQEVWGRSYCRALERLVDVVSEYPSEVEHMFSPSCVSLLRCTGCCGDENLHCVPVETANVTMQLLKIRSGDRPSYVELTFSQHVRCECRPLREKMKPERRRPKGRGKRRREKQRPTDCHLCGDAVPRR

T4: recombinant human VEGF-A145 (human, UniProt P15692-6 27-171)
T4 sequence (looked up): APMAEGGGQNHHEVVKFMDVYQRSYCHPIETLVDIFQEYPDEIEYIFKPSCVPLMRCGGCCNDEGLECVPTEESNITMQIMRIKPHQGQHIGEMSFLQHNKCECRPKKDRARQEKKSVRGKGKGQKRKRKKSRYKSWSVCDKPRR


What was measured:
[1] = target: T1, vascular endothelial growth factor …; test: ELISA, peptide coated
Procedure, shortened: (§1)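 Wells coated with 10 μg/mL laminin α3/α4/α5 LG-domain peptides, BSA-coated wells as non-binding control, blocked with 2% BSA PBS-T. Recombinant human GFs added at 1 μg/mL; bound GF detected with GF-specific biotinylated antibody plus streptavidin-HRP (n=4, mean±SEM).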

[2] = target: T2, placental growth factor (PlGF)-1; test: ELISA, peptide coated
Procedure, shortened: as §1

[3] = target: T5, platelet-derived growth factor (PDGF)-BB (human, UniProt P01127 82-190); test: ELISA, peptide coated
T5 construct: mature; Purchased in mature form
T5 sequence (P01127 82-190): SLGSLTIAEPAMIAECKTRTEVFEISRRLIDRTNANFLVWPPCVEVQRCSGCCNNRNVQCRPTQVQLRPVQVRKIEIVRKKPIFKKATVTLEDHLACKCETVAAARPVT
Procedure, shortened: as §1

[4] = target: T3, placental growth factor (PlGF)-2; test: ELISA, peptide coated
Procedure, shortened: as §1

[5] = target: T6, vascular endothelial growth factor (VEGF)-A165 (human, UniProt P15692-4 27-191); test: ELISA, peptide coated
T6 construct: mature; Purchased in mature form, not glycosylated
Procedure, shortened: as §1

[6] = target: T7, fibroblast growth factor (FGF)-2 (human, UniProt P09038 143-288); test: ELISA, peptide coated
T7 construct: mature; Purchased in mature form
T7 sequence (P09038 143-288): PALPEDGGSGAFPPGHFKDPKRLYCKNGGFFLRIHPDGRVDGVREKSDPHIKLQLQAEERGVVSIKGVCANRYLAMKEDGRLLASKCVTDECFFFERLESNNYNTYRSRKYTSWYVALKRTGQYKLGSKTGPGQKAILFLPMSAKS
Procedure, shortened: as §1

[7] = target: T6, vascular endothelial growth factor …; test: ELISA, peptide coated 50 nM
Description: (§2) ELISA was performed as previously reported1. […] After blocking with 2% BSA solution containing PBS-T, 1 μg/mL of recombinant human VEGF-A121 (PeproTech), recombinant human VEGF-A145 (R & D Systems), or recombinant human VEGF-A165 (PeproTech) was added. Bound VEGF-A was detected with 1 μg/mL of mouse anti-human VEGF-A antibody (clone: 26503, R & D systems). After 60 min of incubation, horseradish peroxidase (HRP) conjugated goat anti-mouse antibody (1:2000 dilution, Dako) was added and incubated for another 60 min. Color development and the absorbance measurement were done as described above.

[8] = target: T4, recombinant human VEGF-A145; test: ELISA, peptide coated 50 nM
Description: as §2

[9] = target: T1, vascular endothelial growth factor …; test: ELISA; peptides and vWF forms coated at 50 nM, VEGF-A in solution, detected with anti-VEGF-A antibody [panel D]
Description: (A) Diagram of exon sequence of VEGF-A showing inclusion (+) or exclusion (−) of heparin binding domain exons for the different VEGF-A isoforms. […] Bound VEGF-A was detected using a specific antibody for VEGF-A (n=4, mean±SD). Statistical comparisons were done using ANOVA with Tukey's test compared with BSA control. **p<0.01.
as §2

| Binder | binding result [1] | binding result [2] | binding result [3] | binding result [4] | binding result [5] | binding result [6] | binding result [7] | binding result [8] | binding result [9] |
| --- | --- | --- | --- | --- | --- | --- | --- | --- | --- |
| ARKASRRSRQPARH (Chemically synthesized (Genscript)) [laminin α5 3312-3325 peptide (Linker)] | no binding (tested: 1 µg/mL) | no binding (tested: 1 µg/mL) | no binding (tested: 1 µg/mL) | no binding (tested: 1 µg/mL) | no binding (tested: 1 µg/mL) | no binding (tested: 1 µg/mL) |  |  |  |
| LYCEIARGYSLKRKVPDQIRSRKA (also called scrambled vWF A1 HBD peptide) [Scrambled HBD] |  |  |  |  |  |  | no binding (tested: 1 µg/mL) | no binding (tested: 1 µg/mL) | no binding (tested: 1 µg/mL VEGF-A121 (single concentration)) |
